Test results from publication doi:10.1101/311027 (bioRxiv, 2018).

Legend:
Spc97 = target: T1, Spc97 (S. cerevisiae, UniProt P38863 1-823); assay: cross-linking
T1 sequence: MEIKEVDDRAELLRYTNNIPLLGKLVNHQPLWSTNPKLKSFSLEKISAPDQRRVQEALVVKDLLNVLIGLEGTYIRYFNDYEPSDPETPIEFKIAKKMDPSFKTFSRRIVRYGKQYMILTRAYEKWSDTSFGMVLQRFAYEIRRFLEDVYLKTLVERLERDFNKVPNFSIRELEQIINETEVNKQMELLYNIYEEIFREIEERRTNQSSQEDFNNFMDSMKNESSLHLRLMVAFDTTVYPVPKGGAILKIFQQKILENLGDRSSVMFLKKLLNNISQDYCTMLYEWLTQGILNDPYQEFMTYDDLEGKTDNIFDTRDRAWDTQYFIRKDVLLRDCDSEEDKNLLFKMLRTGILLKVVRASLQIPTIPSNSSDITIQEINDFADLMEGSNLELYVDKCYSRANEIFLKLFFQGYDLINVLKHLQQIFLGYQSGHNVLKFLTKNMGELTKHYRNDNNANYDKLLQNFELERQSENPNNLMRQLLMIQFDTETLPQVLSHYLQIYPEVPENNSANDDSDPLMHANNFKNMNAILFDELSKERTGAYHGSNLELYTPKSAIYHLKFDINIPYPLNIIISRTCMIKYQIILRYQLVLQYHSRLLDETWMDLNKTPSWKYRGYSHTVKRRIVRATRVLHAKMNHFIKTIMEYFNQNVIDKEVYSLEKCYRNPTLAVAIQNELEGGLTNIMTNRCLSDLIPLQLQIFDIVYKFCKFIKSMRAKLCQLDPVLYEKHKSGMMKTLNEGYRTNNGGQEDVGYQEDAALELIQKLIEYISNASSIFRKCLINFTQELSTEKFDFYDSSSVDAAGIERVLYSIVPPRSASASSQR

Spc98 = target: T2, Spc98 (S. cerevisiae, UniProt P53540 1-846); assay: cross-linking
T2 sequence: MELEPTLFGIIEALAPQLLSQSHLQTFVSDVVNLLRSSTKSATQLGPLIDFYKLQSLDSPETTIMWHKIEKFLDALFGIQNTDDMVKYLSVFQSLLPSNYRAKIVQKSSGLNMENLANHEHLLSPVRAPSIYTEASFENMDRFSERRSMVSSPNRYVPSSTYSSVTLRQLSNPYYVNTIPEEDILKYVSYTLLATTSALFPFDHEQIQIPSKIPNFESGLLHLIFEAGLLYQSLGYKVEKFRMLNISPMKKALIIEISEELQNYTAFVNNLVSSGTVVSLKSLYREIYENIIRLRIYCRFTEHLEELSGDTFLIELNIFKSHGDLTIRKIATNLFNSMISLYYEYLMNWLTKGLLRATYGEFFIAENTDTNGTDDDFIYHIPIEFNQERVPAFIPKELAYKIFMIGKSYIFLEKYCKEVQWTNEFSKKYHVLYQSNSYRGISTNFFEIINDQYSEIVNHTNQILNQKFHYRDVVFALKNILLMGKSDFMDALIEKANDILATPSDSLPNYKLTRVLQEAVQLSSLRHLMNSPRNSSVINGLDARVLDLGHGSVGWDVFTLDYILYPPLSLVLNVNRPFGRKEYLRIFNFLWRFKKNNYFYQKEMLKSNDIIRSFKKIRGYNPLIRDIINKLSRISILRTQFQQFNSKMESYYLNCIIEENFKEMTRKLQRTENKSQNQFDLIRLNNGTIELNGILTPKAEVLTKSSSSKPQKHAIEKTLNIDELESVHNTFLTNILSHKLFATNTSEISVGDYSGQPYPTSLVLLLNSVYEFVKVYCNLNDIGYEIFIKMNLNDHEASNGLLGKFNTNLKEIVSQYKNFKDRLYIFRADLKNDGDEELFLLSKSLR

B1: Spc110^1-401-GST (domain or fragment, S. cerevisiae, UniProt P32380 1-401, looked up)
chain: MDEASHLPNGSLKNMEFTPVGFIKSKRNTTQTQVVSPTKVPNANNGDENEGPVKKRQRRSIDDTIDSTRLFSEASQFDDSFPEIKANIPPSPRSGNVDKSRKRNLIDDLKKDVPMSQPLKEQEVREHQMKKERFDRALESKLLGKRHITYANSDISNKELYINEIKSLKHEIKELRKEKNDTLNNYDTLEEETDDLKNRLQALEKELDAKNKIVNSRKVDDHSGCIEEREQMERKLAELERKLKTVKDQVLELENNSDVQSLKLRSKEDELKNLMNELNELKSNAEEKDTQLEFKKNELRKRTNELNELKIKSDEMDLQLKQKQNESKRLKDELNELETKFSENGSQSSAKENELKMLKNKIAELEEEISTKNSQLIAKEGKLASLMAQLTQLESKLNQRD
binding result (Spc97): binds | binding result (Spc98): binds
